In patent publication US20200270319A1 (KOLON TISSUEGENE, published 2020):

Biological target: Recombinant human PTEN protein (human, UniProt P60483 1-403 (dog entry))
Test: cell-based or functional assay

Chain of Recombinant human PTEN protein (P60483 whole entry): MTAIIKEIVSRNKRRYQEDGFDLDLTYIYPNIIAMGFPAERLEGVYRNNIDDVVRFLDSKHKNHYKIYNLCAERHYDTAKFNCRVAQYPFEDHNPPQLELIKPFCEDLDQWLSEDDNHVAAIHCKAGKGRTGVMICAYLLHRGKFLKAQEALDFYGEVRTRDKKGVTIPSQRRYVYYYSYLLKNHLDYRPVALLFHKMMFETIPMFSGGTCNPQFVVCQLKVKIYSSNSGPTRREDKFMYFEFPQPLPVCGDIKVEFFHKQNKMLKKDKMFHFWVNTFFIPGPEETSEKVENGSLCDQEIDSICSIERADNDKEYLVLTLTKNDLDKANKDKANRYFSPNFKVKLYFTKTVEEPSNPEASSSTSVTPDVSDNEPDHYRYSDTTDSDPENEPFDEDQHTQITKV

- IC50, in vitro PTEN activity assay (lipid phosphatase, C8-PIP3 liposome, Malachite Green): 87.1 µM
- PTEN activity remaining with 10 µM peptide, compared with positive control: 86%
Binder: RRRRRRRRHYRYVDTTDVDPENEPFDEDQHTQITKV (C-terminal amide) [TGN-3 peptide]
